Values of other authors as cited in publication PMC8298264, “Function of cofactor Akirin2 in the regulation of gene expression in model human neutrophil-like HL60 cells” (Bioscience Reports, 2021).

Tested on: AKR2
Design: key: A: Very high confidence in the interaction; B: High confidence in the interaction; D: Moderate confidence in the interaction
Conditions: AKR2-interacting proteins (IPs), physical interactome; ref https://doi.org/10.3390/vaccines8010077; cited from earlier work
Text: Supplement BSR-2021-1120_supp1.zip/BSR-2021-1120_suppST4.xlsx, sheet "BPs related to AKR2-IPs" | column: Predicted Biological Score (PBS)

B1: UBAC1 (protein, UniProt Q9BSL1 1-405, looked up)
Ubiquitin-associated …: MFVQEEKIFAGKVLRLHICASDGAEWLEEATEDTSVEKLKERCLKHCAHGSLEDPKSITHHKLIHAASERVLSDARTILEENIQDQDVLLLIKKRAPSPLPKMADVSAEEKKKQDQKAPDKEAILRATANLPSYNMDRAAVQTNMRDFQTELRKILVSLIEVAQKLLALNPDAVELFKKANAMLDEDEDERVDEAALRQLTEMGFPENRATKALQLNHMSVPQAMEWLIEHAEDPTIDTPLPGQAPPEAEGATAAASEAAAGASATDEEARDELTEIFKKIRRKREFRADARAVISLMEMGFDEKEVIDALRVNNNQQNAACEWLLGDRKPSPEELDKGIDPDSPLFQAILDNPVVQLGLTNPKTLLAFEDMLENPLNSTQWMNDPETGPVMLQISRIFQTLNRT
  Predicted Biological Score (PBS): A
